Three molecules from PMC4545946, “Human Papillomavirus Type 18 cis-Elements Crucial for Segregation and Latency” can be followed below.

What all share (conditions): protein: recombinant; tags: N-terminal Strep-II; chain copies: 2; label: 32P 5' end
In data set [1] the target is T1, HPV-18 E2 (N-terminal Strep-II tag) (Human papillomavirus type 18, UniProt P06790 1-365). Put plainly: EMSA; two dimers, cooperative; intermediate k12 (value only in Fig 4D). Background: In EMSA bound probe runs differently from free probe, usually more slowly.
T1 sequence (P06790 whole entry): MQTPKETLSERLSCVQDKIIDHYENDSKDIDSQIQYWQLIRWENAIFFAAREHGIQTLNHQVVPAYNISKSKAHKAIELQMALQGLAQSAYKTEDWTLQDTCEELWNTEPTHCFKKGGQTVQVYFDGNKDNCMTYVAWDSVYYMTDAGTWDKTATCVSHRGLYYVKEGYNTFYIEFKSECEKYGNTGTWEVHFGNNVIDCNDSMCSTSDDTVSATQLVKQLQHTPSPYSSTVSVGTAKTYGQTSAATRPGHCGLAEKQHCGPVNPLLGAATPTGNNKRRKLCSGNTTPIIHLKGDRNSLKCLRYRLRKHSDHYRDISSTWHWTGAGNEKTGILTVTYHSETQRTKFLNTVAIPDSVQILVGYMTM
The target of data set [2] is T1, HPV-18 E2 (N-terminal Strep-II tag). Put plainly: EMSA; two dimers, cooperative; highest k12 (value only in Fig 4D).
The target is the same in data set [3]. Put plainly: EMSA; two dimers, cooperative; k12 order 1-Linker < 3-Linker < 2-Linker (values only in Fig 4D); >95% probe bound at 1.65 uM E2.

B1: 3-Linker (E2BS #1 and #2, 12 bp spacer) (dsDNA)
DNA 1: ACCGAAAACGGTCGGGCGGGCGGGACCGAAAACGGT
DNA 2: ACCGTTTTCGGTCCCGCCCGCCCGACCGTTTTCGGT
In the case of B1, the binding result in data set [1] is recorded as “binds”.

B2: 2-Linker (E2BS #1 and #2, 8 bp spacer) (dsDNA)
DNA 1: ACCGAAAACGGTCGGGCGGGACCGAAAACGGT
DNA 2: ACCGTTTTCGGTCCCGCCCGACCGTTTTCGGT
In the case of B2, the binding result in data set [2] is listed as “binds”.

B3: 1-Linker (wt, E2BS #1 and #2 with CGGG spacer) (dsDNA)
DNA 1: ACCGAAAACGGTCGGGACCGAAAACGGT
DNA 2: ACCGTTTTCGGTCCCGACCGTTTTCGGT
On to B3, for which, in data set [3], the binding result is “binds”.
